Source: PMC9352680, “A comprehensive thermodynamic model for RNA binding by the Saccharomyces cerevisiae Pumilio protein PUF4”
Where a chain is given by its changes, count along the chain named. Numbers in names are those of the source.

B1: Ic_S2_P4E.1_K4.1_C4.1_H4.1_A4.1_[T5C]_[A6C]_[T7C]_F4.1_[A9C]_T4.1 (ssRNA)
RNA: UUUGAUUAAUAUGAUAUCGUUCUUUCUUGUACCCUCUUCUUUCUCGAUAUCAUAUUAAUCUUU
B2: Ic_S2_P4E.1_K4.1_C4.1_H4.1_A4.1_[T5C]_[A6T]_[T7C]_F4.1_[T8C]_[A9C]_T4.1 (ssRNA)
RNA: B1 RNA with C33U, U35C
B3: Ic_S2_P4E.1_K4.1_C4.1_H4.1_A4.1_[T5C]_[A6T]_F4.1_[T8G]_[A9G]_T4.1 (ssRNA)
RNA: B1 RNA with C33U, C34U, U35G, C36G
B4: Ic_S2_P4E.1_K4.1_C4.1_H4.1_A4.1_[T5C]_[A6T]_[T7G]_F4.1_T4.1 (ssRNA)
RNA: B1 RNA with C33U, C34G, C36A
B5: Ic_S2_P4E.1_K4.1_C4.1_H4.1_A4.1_[T5C]_[A6T]_F4.1_[T8C]_[A9G]_T4.1 (ssRNA)
RNA: B1 RNA with C33U, C34U, U35C, C36G
B6: Ic_S2_P4E.1_K4.1_C4.1_H4.1_A4.1_[T5C]_[A6C]_F4.1_[T8C]_[A9T]_T4.1 (ssRNA)
RNA: B1 RNA with C34U, U35C, C36U
B7: Ic_S2_P4E.1_K4.1_C4.1_H4.1_A4.1_[T5C]_[A6C]_F4.1_[T8C]_[A9C]_T4.1 (ssRNA)
RNA: B1 RNA with C34U, U35C
B8: Ic_S2_P4E.1_K4.1_C4.1_H4.1_A4.1_[T5C]_[A6T]_[T7G]_F4.1_[T8C]_[A9C]_T4.1 (ssRNA)
RNA: B1 RNA with C33U, C34G, U35C
B9: Ic_S2_P4E.1_K4.1_C4.1_H4.1_A4.1_[T5C]_[A6T]_F4.1_[T8G]_[A9T]_T4.1 (ssRNA)
RNA: B1 RNA with C33U, C34U, U35G, C36U
B10: Ic_S2_P4E.1_K4.1_C4.1_H4.1_A4.1_[T5C]_[A6C]_F4.1_[T8C]_T4.1 (ssRNA)
RNA: B1 RNA with C34U, U35C, C36A
B11: Ic_S2_P4E.1_K4.1_C4.1_H4.1_A4.1_[T5C]_[A6T]_[T7C]_F4.1_T4.1 (ssRNA)
RNA: B1 RNA with C33U, C36A
B12: Ic_S2_P4E.1_K4.1_C4.1_H4.1_A4.1_[T5C]_[A6T]_F4.1_[A9C]_T4.1 (ssRNA)
RNA: B1 RNA with C33U, C34U
B13: Ic_S2_P4E.1_K4.1_C4.1_H4.1_A4.1_[T5C]_[A6T]_[T7G]_F4.1_[A9T]_T4.1 (ssRNA)
RNA: B1 RNA with C33U, C34G, C36U
B14: Ic_S2_P4E.1_K4.1_C4.1_H4.1_A4.1_[T5C]_[A6C]_F4.1_[T8A]_[A9T]_T4.1 (ssRNA)
RNA: B1 RNA with C34U, U35A, C36U
B15: Ic_S2_P4E.1_K4.1_C4.1_H4.1_A4.1_[T5C]_[A6C]_F4.1_[A9G]_T4.1 (ssRNA)
RNA: B1 RNA with C34U, C36G
B16: Ic_S2_P4E.1_K4.1_C4.1_H4.1_A4.1_[T5C]_[A6C]_[T7C]_F4.1_[A9T]_T4.1 (ssRNA)
RNA: B1 RNA with C36U
B17: Ic_S2_P4E.1_K4.1_C4.1_H4.1_A4.1_[T5C]_[A6C]_F4.1_[T8A]_[A9G]_T4.1 (ssRNA)
RNA: B1 RNA with C34U, U35A, C36G
B18: Ic_S2_P4E.1_K4.1_C4.1_H4.1_A4.1_[T5C]_[A6T]_[T7A]_F4.1_[T8G]_[A9T]_T4.1 (ssRNA)
RNA: B1 RNA with C33U, C34A, U35G, C36U
B19: Ic_S2_P4E.1_K4.1_C4.1_H4.1_A4.1_[T5C]_[A6C]_F4.1_[T8C]_[A9G]_T4.1 (ssRNA)
RNA: B1 RNA with C34U, U35C, C36G
B20: Ic_S2_P4E.1_K4.1_C4.1_H4.1_A4.1_[T5C]_[A6T]_[T7G]_F4.1_[T8G]_[A9T]_T4.1 (ssRNA)
RNA: B1 RNA with C33U, C34G, U35G, C36U
B21: Ic_S2_P4E.1_K4.1_C4.1_H4.1_A4.1_[T5C]_[A6C]_F4.1_[A9C]_T4.1 (ssRNA)
RNA: B1 RNA with C34U
B22: Ic_S2_P4E.1_K4.1_C4.1_H4.1_A4.1_[T5C]_[A6C]_[T7A]_F4.1_[A9C]_T4.1 (ssRNA)
RNA: B1 RNA with C34A
B23: Ic_S2_P4E.1_K4.1_C4.1_H4.1_A4.1_[T5C]_[A6T]_[T7C]_F4.1_[T8C]_[A9T]_T4.1 (ssRNA)
RNA: B1 RNA with C33U, U35C, C36U
B24: Ic_S2_P4E.1_K4.1_C4.1_H4.1_A4.1_[T5C]_[A6C]_[T7C]_F4.1_T4.1 (ssRNA)
RNA: B1 RNA with C36A
B25: Ic_S2_P4E.1_K4.1_C4.1_H4.1_A4.1_[T5C]_[A6T]_F4.1_[T8A]_[A9G]_T4.1 (ssRNA)
RNA: B1 RNA with C33U, C34U, U35A, C36G
B26: Ic_S2_P4E.1_K4.1_C4.1_H4.1_A4.1_[T5C]_[A6T]_[T7G]_F4.1_[T8C]_[A9T]_T4.1 (ssRNA)
RNA: B1 RNA with C33U, C34G, U35C, C36U
B27: Ic_S2_P4E.1_K4.1_C4.1_H4.1_A4.1_[T5C]_[A6C]_F4.1_[A9T]_T4.1 (ssRNA)
RNA: B1 RNA with C34U, C36U
B28: Ic_S2_P4E.1_K4.1_C4.1_H4.1_A4.1_[T5C]_[A6T]_F4.1_[T8A]_[A9C]_T4.1 (ssRNA)
RNA: B1 RNA with C33U, C34U, U35A
B29: Ic_S2_P4E.1_K4.1_C4.1_H4.1_A4.1_[T5C]_[A6T]_[T7C]_F4.1_[T8A]_[A9T]_T4.1 (ssRNA)
RNA: B1 RNA with C33U, U35A, C36U
B30: Ic_S2_P4E.1_K4.1_C4.1_H4.1_A4.1_[T5C]_[A6T]_[T7C]_F4.1_[T8C]_T4.1 (ssRNA)
RNA: B1 RNA with C33U, U35C, C36A
B31: Ic_S2_P4E.1_K4.1_C4.1_H4.1_A4.1_[T5C]_[A6T]_F4.1_[T8G]_[A9C]_T4.1 (ssRNA)
RNA: B1 RNA with C33U, C34U, U35G
B32: Ic_S2_P4E.1_K4.1_C4.1_H4.1_A4.1_[T5C]_[A6T]_[T7C]_F4.1_[T8G]_[A9C]_T4.1 (ssRNA)
RNA: B1 RNA with C33U, U35G
B33: Ic_S2_P4E.1_K4.1_C4.1_H4.1_A4.1_[T5C]_[A6T]_F4.1_[A9G]_T4.1 (ssRNA)
RNA: B1 RNA with C33U, C34U, C36G
B34: Ic_S2_P4E.1_K4.1_C4.1_H4.1_A4.1_[T5C]_[A6T]_F4.1_[T8C]_[A9T]_T4.1 (ssRNA)
RNA: B1 RNA with C33U, C34U, U35C, C36U
B35: Ic_S2_P4E.1_K4.1_C4.1_H4.1_A4.1_[T5C]_[A6T]_[T7A]_F4.1_[T8A]_[A9C]_T4.1 (ssRNA)
RNA: B1 RNA with C33U, C34A, U35A
B36: Ic_S2_P4E.1_K4.1_C4.1_H4.1_A4.1_[T5C]_[A6T]_F4.1_[T8A]_[A9T]_T4.1 (ssRNA)
RNA: B1 RNA with C33U, C34U, U35A, C36U
B37: Ic_S2_P4E.1_K4.1_C4.1_H4.1_A4.1_[T5C]_[A6T]_[T7G]_F4.1_[T8C]_T4.1 (ssRNA)
RNA: B1 RNA with C33U, C34G, U35C, C36A
B38: Ic_S2_P4E.1_K4.1_C4.1_H4.1_A4.1_[T5C]_[A6T]_F4.1_[T8A]_T4.1 (ssRNA)
RNA: B1 RNA with C33U, C34U, U35A, C36A
B39: Ic_S2_P4E.1_K4.1_C4.1_H4.1_A4.1_[T5C]_[A6C]_[T7A]_F4.1_[T8A]_[A9C]_T4.1 (ssRNA)
RNA: B1 RNA with C34A, U35A
B40: Ic_S2_P4E.1_K4.1_C4.1_H4.1_A4.1_[T5C]_[A6T]_F4.1_[T8C]_T4.1 (ssRNA)
RNA: B1 RNA with C33U, C34U, U35C, C36A
B41: Ic_S2_P4E.1_K4.1_C4.1_H4.1_A4.1_[T5C]_[A6C]_F4.1_[T8G]_[A9T]_T4.1 (ssRNA)
RNA: B1 RNA with C34U, U35G, C36U
B42: Ic_S2_P4E.1_K4.1_C4.1_H4.1_A4.1_[T5C]_[A6C]_[T7A]_F4.1_[A9G]_T4.1 (ssRNA)
RNA: B1 RNA with C34A, C36G
B43: Ic_S2_P4E.1_K4.1_C4.1_H4.1_A4.1_[T5C]_[A6T]_F4.1_[T8C]_[A9C]_T4.1 (ssRNA)
RNA: B1 RNA with C33U, C34U, U35C
B44: Ic_S2_P4E.1_K4.1_C4.1_H4.1_A4.1_[T5C]_[A6T]_[T7A]_F4.1_[T8C]_T4.1 (ssRNA)
RNA: B1 RNA with C33U, C34A, U35C, C36A
B45: Ic_S2_P4E.1_K4.1_C4.1_H4.1_A4.1_[T5C]_[A6C]_[T7A]_F4.1_[T8A]_[A9T]_T4.1 (ssRNA)
RNA: B1 RNA with C34A, U35A, C36U
B46: Ic_S2_P4E.1_K4.1_C4.1_H4.1_A4.1_[T5C]_[A6C]_[T7A]_F4.1_[T8G]_[A9T]_T4.1 (ssRNA)
RNA: B1 RNA with C34A, U35G, C36U
B47: Ic_S2_P4E.1_K4.1_C4.1_H4.1_A4.1_[T5C]_[A6C]_[T7A]_F4.1_[T8C]_T4.1 (ssRNA)
RNA: B1 RNA with C34A, U35C, C36A
B48: Ic_S2_P4E.1_K4.1_C4.1_H4.1_A4.1_[T5C]_[A6T]_[T7A]_F4.1_[A9C]_T4.1 (ssRNA)
RNA: B1 RNA with C33U, C34A
B49: Ic_S2_P4E.1_K4.1_C4.1_H4.1_A4.1_[T5C]_[A6C]_[T7A]_F4.1_[T8C]_[A9G]_T4.1 (ssRNA)
RNA: B1 RNA with C34A, U35C, C36G

biological target: T1, PUF4 RNA-binding domain (Saccharomyces cerevisiae, UniProt P25339 537-888); experiment: Mg; RNA-MaP; 20 mM Na-HEPES pH 7.4, 30 mM KOAc, 0.75 mM MgCl2, 0.1% Tween-20, 5% glycerol, 0.1 mg/mL BSA, 2 mM DTT; 25 C; 0.0125-409.6 nM protein; conditions: tags: N-His6-TEV cleaved; C-SNAP kept, Cy3B-labelled; label: tethered on chip by stalled RNA polymerase
T1 sequence: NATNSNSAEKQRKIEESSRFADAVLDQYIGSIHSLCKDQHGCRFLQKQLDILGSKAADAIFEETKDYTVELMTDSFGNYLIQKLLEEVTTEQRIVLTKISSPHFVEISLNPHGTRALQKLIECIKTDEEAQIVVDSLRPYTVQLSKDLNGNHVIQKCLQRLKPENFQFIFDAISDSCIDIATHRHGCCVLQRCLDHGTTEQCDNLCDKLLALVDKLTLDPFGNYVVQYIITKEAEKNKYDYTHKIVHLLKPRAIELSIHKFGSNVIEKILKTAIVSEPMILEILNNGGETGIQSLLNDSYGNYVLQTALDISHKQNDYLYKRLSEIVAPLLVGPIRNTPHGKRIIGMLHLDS

Binder	Kd [nM]
UCUCUUUGUUUCUAUCUCUU (ssRNA) [Ib_S1_P3E.1_K3.1_C3.1_H3.1_[A4T]_A3.1_[A6C]_F3.1_T3.1]	> 2300
B1	24.5
B2	242
B3	430
B4	2.61
B5	110
B6	29.7
B7	79.4
B8	467
B9	72.9
B10	44.1
B11	0.967
B12	13.3
B13	28.6
B14	9.29
B15	14
B16	14.4
B17	77.3
B18	538
B19	54.9
B20	966
B21	21.5
B22	9.15
B23	103
B24	1.46
B25	141
B26	157

Binder	Kd [nM]
B27	6.99
B28	85.2
B29	68.6
B30	213
B31	365
B32	879
B33	13.1
B34	24.4
B35	519
B36	13.6
B37	753
B38	22.9
B39	712
B40	53.5
B41	28.4
B42	3.21
B43	102
B44	353
B45	20.6
B46	171
B47	162
B48	9.16
B49	271
UCUCUUUGUAUAUUUUCUCUU (ssRNA) [Ia_S1_P4E.1_K4.1_C4.1_H4.1_A4.1_F4.1_[A9T]_T4.1]	4.51
UCUCUUUGUUUGUAUCUCUU (ssRNA) [Ib_S1_P3E.1_K3.1_C3.1_H3.1_[A4T]_A3.1_[A6G]_F3.1_T3.1]	133
UCUCUUUGUUUUUAUCUCUU (ssRNA) [Ib_S1_P3E.1_K3.1_C3.1_H3.1_[A4T]_A3.1_[A6T]_F3.1_T3.1]	1670
UCUCUUUGUAGCUAUCUCUU (ssRNA) [Ib_S1_P3E.1_K3.1_C3.1_H3.1_A3.1_[T5G]_[A6C]_F3.1_T3.1]	819
